According to US20260209316A1 (US Dept. of Health and Human Services, published 2026):
Numbering of substitutions follows the chain as printed.

T1: full-length Sudan GP (GPFL) (Sudan virus (SUDV), UniProt Q7T9D9 33-650)
T1 construct: also called Sudan GPFL; GP(S)FL
T1 sequence: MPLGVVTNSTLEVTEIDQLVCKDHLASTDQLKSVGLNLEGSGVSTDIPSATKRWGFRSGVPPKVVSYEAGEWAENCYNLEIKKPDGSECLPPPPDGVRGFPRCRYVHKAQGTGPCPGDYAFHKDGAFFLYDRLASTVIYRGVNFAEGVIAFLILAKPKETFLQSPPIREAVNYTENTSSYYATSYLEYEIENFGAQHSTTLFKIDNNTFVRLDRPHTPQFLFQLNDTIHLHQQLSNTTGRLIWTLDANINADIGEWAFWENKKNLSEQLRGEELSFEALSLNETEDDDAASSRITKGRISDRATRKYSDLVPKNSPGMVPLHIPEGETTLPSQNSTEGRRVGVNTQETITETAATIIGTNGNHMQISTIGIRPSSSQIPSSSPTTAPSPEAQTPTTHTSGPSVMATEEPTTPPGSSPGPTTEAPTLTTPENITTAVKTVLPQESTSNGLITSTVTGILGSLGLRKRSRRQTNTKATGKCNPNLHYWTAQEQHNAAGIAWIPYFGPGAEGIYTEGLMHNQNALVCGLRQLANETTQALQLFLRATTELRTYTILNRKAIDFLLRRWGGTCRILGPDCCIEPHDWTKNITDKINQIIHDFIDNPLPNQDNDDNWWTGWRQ

T2: SUDV GP on pseudotyped lentiviral vector (Sudan virus (SUDV), UniProt Q7T9D9 33-676)
T2 sequence: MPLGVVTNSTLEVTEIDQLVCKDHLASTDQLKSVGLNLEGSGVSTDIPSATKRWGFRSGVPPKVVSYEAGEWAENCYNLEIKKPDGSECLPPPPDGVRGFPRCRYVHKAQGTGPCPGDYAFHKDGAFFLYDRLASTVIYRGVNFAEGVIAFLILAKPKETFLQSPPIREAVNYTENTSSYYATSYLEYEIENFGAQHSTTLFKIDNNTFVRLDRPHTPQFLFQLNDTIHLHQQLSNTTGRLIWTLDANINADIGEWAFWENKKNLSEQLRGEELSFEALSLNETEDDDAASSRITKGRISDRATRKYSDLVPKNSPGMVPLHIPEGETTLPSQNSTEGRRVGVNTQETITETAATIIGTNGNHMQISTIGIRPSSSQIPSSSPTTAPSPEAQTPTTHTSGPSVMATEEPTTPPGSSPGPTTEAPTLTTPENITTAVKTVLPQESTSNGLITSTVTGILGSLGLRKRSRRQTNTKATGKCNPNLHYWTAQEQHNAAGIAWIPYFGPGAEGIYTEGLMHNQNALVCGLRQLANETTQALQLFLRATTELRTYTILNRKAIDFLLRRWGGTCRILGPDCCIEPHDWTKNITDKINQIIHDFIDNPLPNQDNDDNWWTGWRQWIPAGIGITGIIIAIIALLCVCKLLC

B1: Fab generated from 503S (Fab, V domains shown)
VH: QVQLVQSGAEVKKPGASVRVSCKASGYTFTSYYMHWVRQAPGQGLEWMGQINPSGGTTRYERKFQGRITVTRDTSTSTVYLELSSLRSEDTASYFCACLRDKVTYYDLWSGVDSVWGQGTLVTVSS
VL: DIQMTQSPSSLSASVGDRVTITCRASQDISTWLAWYQQKPEKAPKSLIYAASTLETGVPSRFSGSGSGTDFTLTISSLQPEDFATYYCEQYNGFPRTFGQGTKLDIK
notes: also called 503S Fab
B2: Fab generated from 241S (Fab, V domains shown)
VH: QVQLVQSGSELKKPGASVKVSCKASGYTFTSYTVNWVRQAPGQGLEWMGWINTNTGNPTYAQGFTGRFVFSSDTSVSTAYLQISDLKAEDTAMYYCARHVAYDLWSGHTVTFDHWGQGTLVTVSS
VL: QSALTQPPSASGSPGQSVTISCTGTSSDVGAYNYVSWYQQHPGKAPKLIIYEVTKRPSGVPDRFSGSKSGNTASLTVSGLQAEDEADYYCSSKAGGKTYVFGTGTKVTVL
B3: Fab generated from 354S (Fab, V domains shown)
VH: QVQLVQSGAEVKKPGASVKVSCKASGYSFASYYIHWVRQAPGQGLEWMGIINPSGGTTSYAQKFQGRVTMTRDTSTSTVYMELSSLGSEDTAVYYCARIVDRVTIYLNGVDNYWGQGTLVTVSS
VL: EIVMTQSPATLSVSPGERVTLSCRASQSVSSNLAWFQQTPGQAPRLLIYGASTRASGVPARFSGSGSGTEFTLTISSLQSEDFAVYYCLQYNNWPPGWKYGFGQGTKLEIK
notes: also called 354S Fab
B4: Fab generated from 233S (Fab, V domains shown)
VH: EVQLVESGGGLGQPGGSLRLSCAASGFKFKIFGMNWVRQAPGKGLEWVSYISSRSSIIYYADSVKGRFTISRDDATNSLFLQMNSLRDEDTAMYYCVRDYNLIDFVWGSLFDYWGQGILVTVSS
VL: AIRMTQSPSSLSASTGDSVTITCRASQNIASYLAWYQQIPGKAPKLLIYVASTLQSGVPSRFSGSGSGTDFTLTISSLQSEDFATYYCQQYYRYPPTFGQGTKVEIK
B5: antibody 377S (antibody, V domains shown)
VH: QVQLVQSGAEVKKPGSSVKVSCKASGGTFSNYAINWVRQAPGQGLEWMGRTIPFLGLTNYAENFQARVTITADKSTGTSYMQLSSLRSEDTAVYFCAKAATSGWSPFDNWGQGTLVTVSS
VL: EIVLTQSPGTLSLSPGERATLSCRASQSISSSYFGWYQQKPGQAPRLLIYGASRRAAGIPDRFSCSGSGTDFTLTISRLEPEDFGVYYCQQYGSSPTFGQGTKVEIK
B6: antibody 315S (antibody, V domains shown)
VH: EVQLVESGGGVVQPGRSLRLSCAASGFTFKTYTMHWVRQAPGKGLEWVAVITDDGVNKKYADSVKGRFTISRDNSKNTLYLQMNSLRLEDTAVYYCARSVVVLAAYPLDYWGQGTMVTVSS
VL: DIQMTQSPSSLSASVGDRVTITCRASQTISTYLHWYQQRPGKAPKLLIYAASSLQSGVPSRVSGSGSGTDFTLTITSLQPEDFATYYCLQTYSLPLTFGGGTNVEIK
B7: antibody 528S (antibody, V domains shown)
VH: EVQLAESGGGVVQPGRSLRLSCAASGFTFNSYGMHWVRQAPGKGLEWVAVIWDDGSKKYYADSVKGRFTISRDNSKNTLFLQMNSLRAEDTAVYYCARETIMFTFGEVIVSSRDNYYMDVWGKGTTVTVSS
VL: EIVLTQSPATLSLSPGERATLSCRASQSVSNYLAWYQQKPGQAPRLLIYDASTRAIGIPARFSGVGSGTDFTLTISSLEPEDFAVYYCQQRSNWPPLTFGGGTKVEIK
B8: antibody 365S (antibody, V domains shown)
VH: EVQLVESGGGLVQPGGSLRLSCAASGLTFSAYEMNWVRQAPGKGLEWVSHITTSGSAIYYADSVKGRFTISRDNAKNSLHLQMNRLRADDTAVYFCARDSTIVQCSGTSCHVSTYSYMDVWGKGTTVTVSS
VL: EIVLTQSPATLSLSPGERATLSCRASQSVTTYLAWYQHKPGQAPRLLIYDASKRATGIPARFSGSGSGTDFTLTISSLEPEDFAVYHCQQRSSWPPITFGQGTRLEIK
B9: antibody 338S (antibody, V domains shown)
VH: EVQLVESGGGVVQPGRSLRLSCAASGFTFSQYGMHWVRQAPGKGLECVAVIWFDGSKKYYGDSVKGRFTISRDNSKNTLYLQMNSLRAEDTAVYFCARESLYYYDSGGHYYERGRIDYWGQGTLVTVSS
VL: DIQMTQSPSSLSASVGDRVTITCRASQDISNFLAWFQQKPGKAPKSLIYAASSLLSGVPSKFSGSGSGTDFTLTISSLQPEDFATYYCQQYNSYPPTFGQGTKLEIK
B10: antibody 335S (antibody, V domains shown)
VH: EVQLVESGGGVVQPGRSLRLSCAASGFSFSNYAMHWVRQAPGKGLEWVAVTWYDGSSKYHADSVKGRFTISRDNSKNTLYLQMNSLRAEDTAVYYCARWGMGIVASPGNVLNYYYFMDVWGQGTTVIVSS
VL: SYELTQPPSVSVSPGQTARITCSGNPLPKKHTYWYQQKPGQAPVLMIYKDSERPSRIPERFSGSSSGTTVTLTISGVQAEDEADYYCQSADSTGIVVFGGGTKLTVL
B11: antibody 285S (antibody, V domains shown)
VH: QVQLVQSGAEVKKPGSSVKVSCKASGGTFSTYAITWVRQAPGQGLEWMGRIIPILRVANYAQKFQGRVTITADSSTSTAYMELSSLRSEDTAVYYCANLLAYCGGDCRSDYWGQGTLVTVSS
VL: EIVLTQSPGTLSLSPGERATLSCRASQSVKNSYLAWYHQKPGQAPRLLIYGASSRATGIPDRFSGSGSGTDFTLTISRLEPEDFAVYYCQQYGSSLWTFGQGTKVDVK
B12: antibody 203S (antibody, V domains shown)
VH: QVQLVQSGAEVKKPGSSVKVSCKASGGTFSSYAISWVRQAPGQGLEWLGRILPALGLANYAQKYQDRVKITADKSTSTAYMELSRLGSEDTAVYYCARDRWVGAARRGQYFDYWGQGTQVTVSS
VL: DIQMTQSPATLSASVGDRVTITCRASQSIGTWLAWYQQKPGKAPKLLIYDASSLESGVPPRFSGSGSETEFTLTISSLQPDDFATYYCHQYKSYSYTFGQGTKLEIK
B13: antibody 382S (antibody, V domains shown)
VH: QVQLVQSGAEVKKPGSSVKVSCKASGGTFSNYGISWVRQAPGQGLEWMGRNIPIIGIANYAQKFQDRVTITADKSTSTVFMELRSLRYEDTAVYYCARDPLAARRGNWFDPWGQGTLVTVSS
VL: B12 VL with A9S, I29V, G30S, T31S, S53T, E55Q, P60S, E68G, H89Q, K92N
B14: antibody 405S (antibody, V domains shown)
VH: EVQLVESGGGLIQPGGSLRLSCAASGFTVSSHYMSWVRQAPGKGLEWVSGIYSGGRTHYADSVKGRFTISRDNSKNTLYLQMNSLRADDTAVYSCARGTLLYLYGMDVWGQGTTVTVSS
VL: QSVLTQPPSVSAAPGQRVTISCTGSSSNIGAGYNVHWYQQLPGAAPKLLIYGNTNRPSGVPDRFSGSKSGTSASLAITGLQAEDEADYYCQSFDSSLSGVFGTGTKVTVL

These binders were tested against T1, full-length Sudan GP (GPFL) (assay: BLI, Fab, pH 5.3).
Work on B1 yielded a Kd of 6.58 nM, a koff of 0.000373 s⁻¹ and a kon of 56700 M⁻¹ s⁻¹. Binder B2 has a Kd of 6.36 nM, a koff of 0.000433 s⁻¹ and a kon of 68200 M⁻¹ s⁻¹. Binder B3 has a Kd of 6.12 nM, a koff of 0.000445 s⁻¹ and a kon of 72700 M⁻¹ s⁻¹. B4 showed a Kd of 7.56 nM, a koff of 0.000358 s⁻¹ and a kon of 47300 M⁻¹ s⁻¹.

The binders below were run against T1, full-length Sudan GP (GPFL) (assay: BLI, Fab, pH 7.4).
B1 showed a Kd of 19.5 nM, a koff of 0.00111 s⁻¹ and a kon of 56800 M⁻¹ s⁻¹. With B2 the Kd was 3.47 nM, the koff was 0.000439 s⁻¹ and the kon was 127000 M⁻¹ s⁻¹. Binder B3 has a Kd of 8.89 nM, a koff of 0.00076 s⁻¹ and a kon of 85600 M⁻¹ s⁻¹. In the case of B4, the Kd is reported as 7.53 nM, the koff is reported as 0.000543 s⁻¹ and the kon is reported as 72100 M⁻¹ s⁻¹.

The binders below were run against T1, full-length Sudan GP (GPFL) (assay: ELISA on coated GP).
In the case of B5, the EC50 is reported as 0.14 µg/mL. For B6, the EC50 was 0.01 µg/mL. B7 gave an EC50 of 0.05 µg/mL. Work on B8 yielded an EC50 of 0.11 µg/mL. Work on B9 yielded an EC50 of 0.03 µg/mL. For B10, the EC50 was 0.02 µg/mL. B11 showed an EC50 of 0.02 µg/mL. For B12, the EC50 was 0.5 µg/mL. B13 gave an EC50 of 0.35 µg/mL. In the case of B14, the EC50 is reported as 0.06 µg/mL.

These binders were tested against T2, SUDV GP on pseudotyped lentiviral vector (assay: cell-based or functional assay).
For B5, the “IC50, microneutralization of GP-pseudotyped lentiviral vector on HEK293 cells” value (from here on “IC50, microneutralization”) was 0.56 µg/mL. For B6, the “IC50, microneutralization” value was 0.15 µg/mL. In the case of B7, the “IC50, microneutralization” value is reported as 0.58 µg/mL. In the case of B8, the “IC50, microneutralization” value is reported as 0.79 µg/mL. In the case of B9, the “IC50, microneutralization” value is reported as 0.6 µg/mL. For B10, the “IC50, microneutralization” value was 0.63 µg/mL. With B11 the “IC50, microneutralization” value was 0.64 µg/mL. With B12 the “IC50, microneutralization” value was 0.04 µg/mL. In the case of B13, the “IC50, microneutralization” value is reported as 0.71 µg/mL. In the case of B14, the “IC50, microneutralization” value is reported as 0.79 µg/mL.
